From US20250235548A1, “ANTIBODY-DRUG CONJUGATES TARGETING NAPI2B AND METHODS OF USE” (Zymeworks BC Inc., priority 2022, published 2025)
“Also recorded” adds a separate entry of the source.

Tested on: NaPi2b-negative EBC-1 cells
Experiment: Bystander activity, EBC-1 mono-culture vs co-culture with HCC-78 (Examples 19 and 34)
Type: cell-based
Conditions: for bystander activity (in words): 5 nM test article; for bystander activity (in words) / Average EBC-1 % viability in co-culture / Average EBC-1 % viability in mono-culture: 4 days
Procedure: The ability of v29456 ADCs to exert a bystander killing effect on cancer cells was assessed according to the method described below. Bystander killing can occur after target-specific uptake of an ADC into an antigen-positive cell. In this case, catabolism of the ADC results in release of payload or an active catabolite, which then crosses the cell membrane of nearby cells to elicit their death.
Cell lines used were HCC-78 (high NaPi2b expression) and EBC-1 (negative NaPi2b expression).
(§1) NaPi2b-positive HCC-78 and NaPi2b-negative EBC-1 cells were seeded either as mono-cultures or co-cultures in a 48-well plate at 15,000 cells and 5,000 cells, respectively, in 100 μL assay media (RPMI1640+10% FBS). ADCs were diluted to 10 nM in assay media and 100 μL was added to the cell-containing plates (5 nM final ADC concentration). Cells were incubated with ADCs for 4 days under standard culturing conditions (37° C./5% CO2). […] After incubation, cells were washed in FACS buffer, resuspended in 70 μL FACS buffer per well, and 35 μL per well were analyzed on a BD LSRFortessa™ Cell Analyzer (BD Biosciences, Franklin Lake, NJ). Dead cells were excluded by gating on YO—PRO®-1 staining. The number of HCC-78 and EBC-1 cells were determined by the number of events in the Alexa Fluor®647 positive (NaPi2b-positive) and Alexa Fluor®647 negative (NaPi2b-negative) gates, respectively. Percent viability was calculated as the number of cells in treatment condition divided by the number of cells in the no-treatment condition.
(§2) Bystander effect was calculated by comparing the viability of NaPi2b-negative EBC-1 cells treated as mono-culture (black bars) with that of the cells treated as a co-culture with NaPi2b-positive HCC-78 cells (grey bars). A greater decrease in viability in co-culture compared with mono-culture indicated a greater bystander effect.
Bystander killing can occur after target-specific uptake of an ADC into an antigen-positive cell, as described in Example 19. Cell lines used were HCC-78 (high NaPi2b expression) and EBC-1 (negative NaPi2b expression). Surface NaPi2b expression for these cell lines were measured as described in Example 15.
[…] […] The human antibody variant v29456 conjugated to MC-GGFG-AM-DXd1 was included as a positive control.
as §1, with “Briefly, NaPi2b-positive HCC-78” for “NaPi2b-positive HCC-78”, “10 nM or 40 nM in assay” for “10 nM in assay”, “plates (5 nM or 20 nM final” for “plates (5 nM final”, “resuspended in 60 μL FACS” for “resuspended in 70 μL FACS”, “cells in each treatment condition” for “cells in treatment condition”
as §2, with “indicates” for “indicated”

Substance | bystander activity (in words) | Average EBC-1 % viability in co-culture (5 nM ADC, co-culture with NaPi2b-positive HCC-78, relative to untreated blank) [%] | Average EBC-1 % viability in mono-culture (5 nM ADC, relative to untreated blank) [%] | % Bystander activity (5 nM ADC, viability in mono-culture compared with co-culture) [%] | % Bystander activity (5 nM, Biological Replicate 1) [%] | Average EBC-1 % viability in co-culture (5 nM, Biological Replicate 1, co-culture with HCC-78, relative to untreated blank) [%] | Average EBC-1 % viability in mono-culture (5 nM, Biological Replicate 1, relative to untreated blank) [%] | % Bystander activity (20 nM, Biological Replicate 1) [%] | Average EBC-1 % viability in co-culture (20 nM, Biological Replicate 1, co-culture with HCC-78, relative to untreated blank) [%] | Average EBC-1 % viability in mono-culture (20 nM, Biological Replicate 1, relative to untreated blank) [%]
palivizumab MC-GGFG-AM-DXd1: "palivizumab (v22277) MC-GGFG-AM-DXd1", negative control | negative bystander activity; also recorded: negligible bystander activity | – | – | – | – | – | – | – | – | –
palivizumab MCvcPABC-MMAE: "palivizumab (v22277) MCvcPABC-MMAE", negative control | negative bystander activity; also recorded: negligible bystander activity | – | – | – | – | – | – | – | – | –
v22277-MCvcPABC-MMAE: negative (non-NaPi2b targeting) controls palivizumab (v22277) MC-GGFG-AM-DXd and palivizumab (v22277) MCvcPABC-MMAE | – | 95.8 | 86.4 | −9.4 | 7.5 | 81.7 | 89.2 | 7.4 | 84.1 | 91.5
